# How the values were obtained:
# [1] = molecular target: FcγRI (human) (UniProt P12314); assay: SPR; His-tagged or myc-myc His-tagged Fcγ receptors captured (about 200 RU) on anti-histidine antibody on a CM4 or CM5 chip; inhibitor with or without equimolar VEGF165 or VEGF121 injected (1 µM in Table 1); Biacore 3000, 25 °C, HBS-T pH 7.4; only kd and t1/2 calculated
# [2] = molecular target: FcγRIIIb (human) (UniProt O75015); assay: as above
# [3] = molecular target: FcγRIIb (human) (UniProt P31994); assay: as above
# FcγRIIb (human), sequence (P31994 43-217): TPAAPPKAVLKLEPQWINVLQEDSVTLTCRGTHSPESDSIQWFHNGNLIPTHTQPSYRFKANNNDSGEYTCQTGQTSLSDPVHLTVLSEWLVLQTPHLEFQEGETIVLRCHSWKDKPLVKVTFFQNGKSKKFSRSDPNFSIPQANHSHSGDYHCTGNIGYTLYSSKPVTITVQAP
# [4] = molecular target: FcγRIIIa (176F) (human) (UniProt P08637); assay: as above
# FcγRIIIa (176F) (human), sequence (P08637 17-254): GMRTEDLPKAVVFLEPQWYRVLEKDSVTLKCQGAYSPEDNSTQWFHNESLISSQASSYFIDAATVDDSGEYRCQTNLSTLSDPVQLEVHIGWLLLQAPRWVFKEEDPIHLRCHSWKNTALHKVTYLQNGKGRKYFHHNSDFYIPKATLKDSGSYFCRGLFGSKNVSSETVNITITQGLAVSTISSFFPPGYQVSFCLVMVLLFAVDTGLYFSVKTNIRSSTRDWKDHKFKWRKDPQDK
# [5] = molecular target: FcγRIIIa (176V) (human) (UniProt P08637); assay: as above
# FcγRIIIa (176V) (human), sequence (P08637 17-254 F176V): as the sequence (P08637 17-254) above, with F160V counted along it
# [6] = molecular target: FcγRIIa (131R allele) (human) (UniProt P12318); assay: as above
# [7] = molecular target: VEGF165 (human); assay: SEC-MALS; inhibitor and ligand mixed at molar ratios 5:1 to 1:5 (20 µM and 100 µM), 12 h at ambient temperature; free proteins injected separately; Superose 12 10/300 GL, 10 mM phosphate, 500 mM NaCl, pH 7.0, 0.3 mL/min
# [8] = molecular target: T1, PlGF-2 (UniProt P49763); assay: as above
# T1 sequence: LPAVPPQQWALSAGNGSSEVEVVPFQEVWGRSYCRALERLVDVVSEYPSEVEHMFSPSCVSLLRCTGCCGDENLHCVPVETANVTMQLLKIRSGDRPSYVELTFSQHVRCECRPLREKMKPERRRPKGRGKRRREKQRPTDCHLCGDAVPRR
# FcγRIIIb (human), sequence (O75015 17-200): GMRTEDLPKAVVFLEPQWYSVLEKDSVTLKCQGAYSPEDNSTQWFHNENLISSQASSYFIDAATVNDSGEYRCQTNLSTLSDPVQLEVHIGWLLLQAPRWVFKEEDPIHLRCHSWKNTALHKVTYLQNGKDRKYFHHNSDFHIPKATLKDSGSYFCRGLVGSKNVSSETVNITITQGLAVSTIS
# aflibercept (Fc fusion), sequence (chain): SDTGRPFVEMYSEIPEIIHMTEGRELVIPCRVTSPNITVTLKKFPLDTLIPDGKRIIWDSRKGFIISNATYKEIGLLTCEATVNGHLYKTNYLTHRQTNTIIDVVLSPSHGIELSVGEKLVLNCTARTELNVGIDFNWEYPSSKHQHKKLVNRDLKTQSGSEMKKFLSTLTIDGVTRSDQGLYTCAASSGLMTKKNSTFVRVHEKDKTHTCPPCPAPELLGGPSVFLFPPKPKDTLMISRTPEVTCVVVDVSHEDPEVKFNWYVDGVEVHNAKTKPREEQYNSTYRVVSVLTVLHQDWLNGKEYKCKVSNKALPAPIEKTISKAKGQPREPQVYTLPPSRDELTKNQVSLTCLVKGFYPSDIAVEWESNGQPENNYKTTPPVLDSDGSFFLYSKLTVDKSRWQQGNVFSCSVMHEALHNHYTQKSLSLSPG
# FcγRI (human), sequence (P12314 16-292): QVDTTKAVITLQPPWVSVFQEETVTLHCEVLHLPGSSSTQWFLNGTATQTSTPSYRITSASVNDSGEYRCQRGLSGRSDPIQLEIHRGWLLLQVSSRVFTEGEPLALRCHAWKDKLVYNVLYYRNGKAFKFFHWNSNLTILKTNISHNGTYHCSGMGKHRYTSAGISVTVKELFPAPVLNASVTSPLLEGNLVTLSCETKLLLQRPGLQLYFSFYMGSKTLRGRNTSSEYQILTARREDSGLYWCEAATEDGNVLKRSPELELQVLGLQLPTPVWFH
Substance,t1/2 [1] [min],t1/2 [2] [min],t1/2 [3] [min],t1/2 [4] [min],t1/2 [5] [min],t1/2 [6] [min],koff [1] [s⁻¹],koff [4] [s⁻¹],koff [5] [s⁻¹],koff [2] [s⁻¹],koff [6] [s⁻¹],koff [3] [s⁻¹],stoichiometry N [7],stoichiometry N (aflibercept per PlGF-2 dimer) [8],stoichiometry N (aflibercept per VEGF165 dimer) [7]
bevacizumab:VEGF121 complex,57,4.42,6.33,–,–,–,–,–,–,–,–,–,–,–,–
aflibercept:VEGF121 complex,16.9,0.0833,–,0.317,2.02,0.0667,–,–,–,–,–,–,–,–,–
bevacizumab:VEGF165 complex,47.9,7.72,11.8,–,–,–,–,–,–,–,–,–,–,–,–
bevacizumab (antibody),15.4,0.0667,0.0667,0.183,1.43,0.1,0.000749,0.0626,0.00803,0.196,0.111,0.179,–,–,–
VEGF165 (ligand),–,–,–,–,–,–,–,–,–,–,–,–,2,–,–
aflibercept:VEGF165 complex,18.7,0.0667,0.0667,0.3,1.88,0.05,0.000617,0.0392,0.00614,0.164,0.205,0.174,–,–,–
aflibercept (Fc fusion),16,0.0667,–,0.233,1.52,–,–,–,–,–,–,–,–,1,1

# From publication PMC4930479
